In patent US20230242902A1, “A HIGHLY ERROR-PRONE […] R[…] FOR TARGETED CONTINUOUS EVOLUTION IN VIVO” (The Regents of the University of California, priority 2017, published 2023):

System: genomic CAN1 gene
Assay: Fluctuation tests of the genomic CAN1 gene (POL3 mutator strains)
Format: cell-based, S. cerevisiae
Settings: genomic mutation rate
Description: To construct POL3 mutator strains, plasmids were transformed into AH22 encoding wild-type POL3 on a URA3 plasmid or Δmsh6 AH22 encoding wild-type POL3 on a URA3 plasmid. Transformants were expanded in selective SC medium and spot plated on selective SC medium or selective SC medium supplemented with 5-FOA (1 g/L) for plasmid shuffle of the plasmid encoding wild-type POL3 via URA3 counter-selection (Boeke et al., 1984).
Fluctuation tests of the genomic CAN1 gene were performed to determine genomic per-base substitution rates. To minimize propagation of POL3 mutator strains, fluctuation tests were performed directly on colonies from plasmid shuffle plates. For each strain, 48 colonies from plasmid shuffle plates were individually scraped and resuspended in 120 μL 0.9% NaCl. 10 μL from each resuspension was diluted and subject to an event counts measurement via flow cytometry. This was done to identify colonies of similar cell count, because fluctuation tests are only appropriate when final population sizes for all replicates are similar. 24 resuspensions with similar event counts were used for fluctuation tests. […] Colonies were counted from titer plates after 2-4 days and from spot plates after 3-6 days. […]
Fluctuation data were analyzed as described above for URA3 fluctuation data, but with mutation frequency parameters for CAN1 (Lang et al., 2008). […]

B1: pol3-01: proofreading deficient pol3-01 allele encodes POL3 (D321A, E323A) (protein, UniProt P15436 1-1097, looked up, variant D321A E323A)
DNA polymerase delta …: MSEKRSLPMVDVKIDDEDTPQLEKKIKRQSIDHGVGSEPVSTIEIIPSDSFRKYNSQGFKAKDTDLMGTQLESTFEQELSQMEHDMADQEEHDLSSFERKKLPTDFDPSLYDISFQQIDAEQSVLNGIKDENTSTVVRFFGVTSEGHSVLCNVTGFKNYLYVPAPNSSDANDQEQINKFVHYLNETFDHAIDSIEVVSKQSIWGYSGDTKLPFWKIYVTYPHMVNKLRTAFERGHLSFNSWFSNGTTTYDNIAYTLRLMVDCGIVGMSWITLPKGKYSMIEPNNRVSSCQLEVSINYRNLIAHPAEGDWSHTAPLRIMSFAIACAGRIGVFPEPEYDPVIQIANVVSIAGAKKPFIRNVFTLNTCSPITGSMIFSHATEEEMLSNWRNFIIKVDPDVIIGYNTTNFDIPYLLNRAKALKVNDFPYFGRLKTVKQEIKESVFSSKAYGTRETKNVNIDGRLQLDLLQFIQREYKLRSYTLNAVSAHFLGEQKEDVHYSIISDLQNGDSETRRRLAVYCLKDAYLPLRLMEKLMALVNYTEMARVTGVPFSYLLARGQQIKVVSQLFRKCLEIDTVIPNMQSQASDDQYEGATVIEPIRGYYDVPIATLDFNSLYPSIMMAHNLCYTTLCNKATVERLNLKIDEDYVITPNGDYFVTTKRRRGILPIILDELISARKRAKKDLRDEKDPFKRDVLNGRQLALKISANSVYGFTGATVGKLPCLAISSSVTAYGRTMILKTKTAVQEKYCIKNGYKHDAVVVYGDTDSVMVKFGTTDLKEAMDLGTEAAKYVSTLFKHPINLEFEKAYFPYLLINKKRYAGLFWTNPDKFDKLDQKGLASVRRDSCSLVSIVMNKVLKKILIERNVDGALAFVRETINDILHNRVDISKLIISKTLAPNYTNPQPHAVLAERMKRREGVGPNVGDRVDYVIIGGNDKLYNRAEDPLFVLENNIQVDSRYYLTNQLQNPIISIVAPIIGDKQANGMFVVKSIKINTGSQKGGLMSFIKKVEACKSCKGPLRKGEGPLCSNCLARSGELYIKALYDVRDLEEKYSRLWTQCQRCAGNLHSEVLCSNKNCDIFYMRVKVKKELQEKVEQLSKW
  mutational increase: 58 fold
